Experimental findings from patent US20200181255A1 (Amgen, published 2020) are described below.

Assay [1] has as its target T1, recombinant cynomolgous IL-23 (cynomolgous).
T1 chain 1: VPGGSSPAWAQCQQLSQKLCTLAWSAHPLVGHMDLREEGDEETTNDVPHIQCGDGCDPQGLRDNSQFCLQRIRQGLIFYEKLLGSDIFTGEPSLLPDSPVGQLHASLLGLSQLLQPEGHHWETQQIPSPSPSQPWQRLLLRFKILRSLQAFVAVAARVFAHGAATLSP
T1 chain 2: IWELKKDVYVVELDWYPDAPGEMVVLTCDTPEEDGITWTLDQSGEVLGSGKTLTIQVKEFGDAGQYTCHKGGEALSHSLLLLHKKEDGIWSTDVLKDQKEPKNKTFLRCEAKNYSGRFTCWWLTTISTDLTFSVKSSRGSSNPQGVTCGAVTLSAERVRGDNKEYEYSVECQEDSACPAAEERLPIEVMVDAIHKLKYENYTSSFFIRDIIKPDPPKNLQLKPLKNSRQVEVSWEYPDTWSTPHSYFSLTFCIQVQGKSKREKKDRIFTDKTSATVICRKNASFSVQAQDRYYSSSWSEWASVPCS
The assay is described as follows: cell-based or functional assay.

Assay [2] concerns the target T2, Native human IL-23 (human, UniProt Q9NPF7 20-189; P29460 23-328).
T2 sequence 1: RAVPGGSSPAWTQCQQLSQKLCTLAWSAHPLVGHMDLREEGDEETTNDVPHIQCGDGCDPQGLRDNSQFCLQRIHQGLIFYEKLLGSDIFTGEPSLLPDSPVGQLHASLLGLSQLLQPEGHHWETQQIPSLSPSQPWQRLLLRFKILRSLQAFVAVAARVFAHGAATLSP
T2 sequence 2: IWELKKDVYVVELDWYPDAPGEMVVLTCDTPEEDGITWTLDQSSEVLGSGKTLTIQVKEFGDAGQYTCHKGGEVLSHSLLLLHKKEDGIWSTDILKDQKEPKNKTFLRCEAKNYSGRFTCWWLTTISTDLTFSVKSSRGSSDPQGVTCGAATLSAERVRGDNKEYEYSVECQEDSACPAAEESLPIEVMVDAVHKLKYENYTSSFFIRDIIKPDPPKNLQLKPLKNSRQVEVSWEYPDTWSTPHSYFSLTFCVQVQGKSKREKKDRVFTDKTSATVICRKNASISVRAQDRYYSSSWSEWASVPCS
The assay is described as follows: cell-based or functional assay.

In assay [3] the target is T3, recombinant human IL-23 (human, UniProt Q9NPF7 20-189; P29460 23-328).
T3 sequence 1: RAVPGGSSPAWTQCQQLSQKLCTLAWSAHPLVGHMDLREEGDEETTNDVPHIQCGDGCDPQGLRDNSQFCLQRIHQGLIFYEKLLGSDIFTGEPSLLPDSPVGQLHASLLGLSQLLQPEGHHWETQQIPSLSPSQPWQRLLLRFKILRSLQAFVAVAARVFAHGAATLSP
T3 sequence 2: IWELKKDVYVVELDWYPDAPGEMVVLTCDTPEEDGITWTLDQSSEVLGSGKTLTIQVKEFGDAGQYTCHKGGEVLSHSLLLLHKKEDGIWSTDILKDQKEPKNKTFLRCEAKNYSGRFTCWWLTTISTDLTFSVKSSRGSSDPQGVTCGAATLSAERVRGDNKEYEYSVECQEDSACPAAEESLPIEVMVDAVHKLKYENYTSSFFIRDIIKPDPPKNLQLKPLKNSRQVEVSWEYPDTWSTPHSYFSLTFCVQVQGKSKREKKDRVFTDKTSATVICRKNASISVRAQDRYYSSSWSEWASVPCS
The assay is described as follows: cell-based or functional assay.

The target of assay [4] is T1, recombinant cynomolgous IL-23. The assay is described as follows: cell-based or functional assay.
Assay [5] concerns the target T3, recombinant human IL-23. In words: cell-based or functional assay. The source holds these as a separate data set.
In assay [6] the target is T3, recombinant human IL-23. In words: KinExA. (In general: A kinetic exclusion assay measures how much of one partner remains free in solution.)
In assay [7] the target is T3, recombinant human IL-23. The assay is described as follows: KinExA, derived from KD=Koff/Kon.
Assay [8] addresses T3, recombinant human IL-23. In words: KinExA, solution equilibrium, rhuIL-23-coated beads.
Procedure: Normal human serum (NHS)-activated Sepharose 4 fast flow beads (Amersham Biosciences, part of GE Healthcare, Uppsala, Sweden), are pre-coated with rhuIL-23 and blocked with 1 m Tris buffer with 10 mg/mL BSA. 50 pM of IL-23 antibody is incubated with rhuIL-23 (12 points of 1:2 dilutions starting from 800 pM) at room temperature for 72 hours before it is run through the rhuIL-23-coated Sepharose beads. The amount of the bead-bound antibody was quantified by fluorescent (Cy5) labeled goat anti-human-Fc antibody (Jackson Immuno Research, West Grove, Pa.). The binding signal is proportional to the amount of free antibody at equilibrium.
The target in assay [9] is T1, recombinant cynomolgous IL-23. In words: cell-based or functional assay.
The target of assay [10] is T3, recombinant human IL-23. In words: cell-based or functional assay. This is another data set of the same source.
Assay [11] addresses T1, recombinant cynomolgous IL-23. The assay is described as follows: cell-based or functional assay.
In assay [12] the target is T2, Native human IL-23. The assay is described as follows: cell-based or functional assay. The source holds these as a separate data set.

B1: Antibody K (antibody, V domains shown)
VH: EVQLVESGGGLVQPGGSLRLSCVVSGFTFSSFSMNWVRQAPGKGLEWVSYISSRSSTIYYADSVKGRFTISRDNAKNSLYLQMNSLRDEDTAVYYCARRIAAAGPWGYYYAMDVWGQGTTVTVSS
VL: QPELTQPPSASASLGASVTLTCTLSSGYSDYKVDWYQLRPGKGPRFVMRVGTGGTVGSKGEGIPDRFSVLGSGLNRSLTIKNIQEEDESDYHCGADHGSGSNFVYVFGTGTKVTVL
As for B1, the figures for the “IC50 (pM), STAT-luciferase assay” value (in assay [1]; in the assay with Native human IL-23 [2]; with recombinant human IL-23 [3]) were 61 pM, 71 pM and 43 pM, respectively. For the same molecule, the “IC50 (pM), NK cell assay (IFNγ)” value in [4] came out at 8 pM; in the assay with recombinant human IL-23 [5] it was 7 pM.

B2: Antibody M (antibody, V domains shown)
VH: EVQLVESGGGLVQPGGSLRLSCAASGFTFSSYSMNWVRQAPGKGLEWVSYISSRSSTIYIADSVKGRFTISRDNAKNSLYLQMNSLRDEDTAVYYCARRIAAAGGFHYYYALDVWGQGTTVTVSS
VL: QPVLTQPPSASASLGASVTLTCTLNSGYSDYKVDWYQQRPGKGPRFVMRVGTGGIVGSKGDGIPDRFSVLGSGLNRYLTIKNIQEEDESDYHCGADHGSGSNFVYVFGTGTKVTVL
As to B2, the figures for the “IC50 (pM), STAT-luciferase assay” value (in assay [1]; in the assay with Native human IL-23 [2]; with recombinant human IL-23 [3]) were 56 pM, 34 pM and 40 pM, respectively. Further, the “IC50 (pM), NK cell assay (IFNγ)” value was 12 pM in [4] and 8 pM with recombinant human IL-23 [5].

B3: Antibody N (antibody, V domains shown)
VH: EVQLVESGGGLVQPGGSLRLSCAASGFTFSTYSMNWVRQAPGKGLEWVSYISSSSSTRYHADSVKGRFTISRDNAKNSLYLQMNSLRDEDTAVYYCARRIAAAGPWGYYYAMDVWGQGTTVTVSS
VL: QPVLTQPPSASASLGASVTLTCTLSSGYSDYKVDWYQQRPGKGPRFVMRVGTGGIVGSKGEGIPDRFSVLGSGLNRYLTIKNIQEEDESDYHCGADHGSGNNFVYVFGTGTKVTVL
For the molecule B3, the “IC50 (pM), STAT-luciferase assay” value in assay [1] was found to be 238 pM; in the assay with Native human IL-23 [2] it was 361 pM; with recombinant human IL-23 [3], 145 pM.

B4: Antibody J (antibody, V domains shown)
VH: QVQLVESGGGVVQPGRSLRLSCAASGFTFSSYGMHWVRQAPGKGLEWVAVISFDGSLKYYADSVKGRFTISRDNSKNTLYLQMNSLRAEDTAVYYCARERTTLSGSYFDYWGQGTLVTVSS
VL: QAVLTQPSSLSASPGASASLTCTLRSGINVGTYRIYWYQQKPGSPPQYLLRYKSDSDKQQGSGVPSRFSGSKDASANAGILLISGLQSEDEADYYCMIWHSSASVFGGGTKLTVL
With B4, the “IC50 (pM), STAT-luciferase assay” value in assay [1] came out at 56 pM; with Native human IL-23 [2], 83 pM; in the assay with recombinant human IL-23 [3], 36 pM. The entries for the “IC50 (pM), NK cell assay (IFNγ)” value (in [4]; with recombinant human IL-23 [5]) were 5 pM and 4 pM, respectively.

B5: Antibody L (antibody, V domains shown)
VH: QVQLVESGGGVVQPGRSLRLSCAASGFTFSSYAMHWVRQAPGKGLEWLSVISHDGSIKYYADSVKGRFTISRDNSKNTLYLQMNSLRAEDTAVYYCARERTTLSGSYFDYWGQGTLVTVSS
VL: QAVLTQPSSLSASPGASASLTCTLRSGINVGTYRIYWYQQKPGSPPQYLLRYKSDSDKQQGSGVPSRFSGSKDASANAGILLISGLQSEDEADYYCMIWHSSASVFGGGTKLTVL
notes: also called VH4/VL4
A word on the kon: it is the second-order rate constant of association. Broadly, the koff is the rate constant with which the complex falls apart. A word on the Kd: it is a measure of binding affinity in units of concentration. Consider B5, for which, in the assay with recombinant human IL-23 [6], the kon turned out to be 3.34e+06 M⁻¹ s⁻¹. The “IC50 (pM), STAT-luciferase assay” value worked out at 47 pM in assay [1], 113 pM in the assay with Native human IL-23 [2] and 23 pM in the assay with recombinant human IL-23 [3]. In the assay with recombinant human IL-23 [7], the koff came out at 3.7e-06 s⁻¹. Moreover, the figures for the “IC50 (pM), NK cell assay (IFNγ)” value (in assay [4]; with recombinant human IL-23 [5]) were 4 pM and 3 pM, respectively. In addition, the Kd with recombinant human IL-23 [8] came out at 1.08 pM.

B6: Antibody A (antibody, V domains shown)
VH: QVQLQESGPGLVKPSQTLSLTCTVSGGSISSGGYYWSWIRQHPGKGLEWIGYIYYSGSTYYNPSLKSRVTMSVDTSKNQFSLKLSSVTAADTAVYYCAKNRGFYYGMDVWGQGTTVTVSS
VL: DIQLTQSPSSVSASVGDRVTITCRASQVISSWFAWYQQKPGKAPNLLIYAASSLQSGVPSRFSGSGSGTDFTLTISSLQPADFATYFCQQANSFPFTFGPGTKVDVK
On to B6, for which the “IC50 (pM), STAT-luciferase assay” value in assay [1] was found to be 379 pM; with Native human IL-23 [2], 114 pM; with recombinant human IL-23 [3], 190 pM. Besides, the “IC50 (pM), NK cell assay (IFNγ)” value in assay [4] was 31 pM; in the assay with recombinant human IL-23 [5] it was 42 pM.

B7: Antibody H (antibody, V domains shown)
VH: QVQLQESGPGLVKPSQTLSLTCTVSGGSISSGGYYWTWIRQHPGKGLEWIGYIYYSGNTYYNPSLKSRITISVDTSKNQFSLSLSSVTAADTAVYYCARNRGYYYGMDVWGQGTTVTVSS
VL: DIQMTQSPSSVSASVGDRVTITCRASQGFSGWLAWYQQKPGKAPKLLIYAASSLQSGVPSRFSGSGSGTDFTLTISSLQPEDFATYYCQQANSFPFTFGPGTKVDIK
For the molecule B7, the results for the “IC50 (pM), STAT-luciferase assay” value (in [1]; in the assay with Native human IL-23 [2]; in the assay with recombinant human IL-23 [3]) were 1024 pM, 192 pM and 253 pM, respectively. The figures for the “IC50 (pM), NK cell assay (IFNγ)” value (in [4]; with recombinant human IL-23 [5]) were 33 pM and 29 pM, respectively.

B8: Antibody C (antibody, V domains shown)
VH: QVQLQESGPGLVKPSQTLSLTCTVSGGSINSGGYYWSWIRQHPGKGLEWIGYIYYSGSSYYNPSLKSRVTISVDTSQNQFSLKLSSVTAADTAVYYCARDRGHYYGMDVWGQGTTVTVSS
VL: DIQMTQSPSSVSASVGDRVTITCRASQGSSSWFAWYQQKPGKAPKLLIYAASSLQSGVPSRFSGSGSGTDFTLTISSLQPEDFATYYCQQANSFPFTFGPGTKVDIK
notes: also called VH10/VL10
With B8, the kon in the assay with recombinant human IL-23 [6] stood at 1.36e+06 M⁻¹ s⁻¹. For the same molecule, the “IC50 (pM), STAT-luciferase assay” value in assay [1] came to 376 pM; with Native human IL-23 [2], 107 pM; in the assay with recombinant human IL-23 [3], 211 pM. The dissociation rate constant (koff) with recombinant human IL-23 [7] was found to be 4.1e-06 s⁻¹. In addition, the “IC50 (pM), NK cell assay (IFNγ)” value worked out at 29 pM in [4] and 32 pM in the assay with recombinant human IL-23 [5]. In addition, the “IC50 (pM), IFNγ human whole blood assay” value amounted to 186 pM in assay [9] and 97 pM with recombinant human IL-23 [10]. Further, in the assay with recombinant human IL-23 [8], the Kd is 2.56 pM.

B9: Antibody I (antibody, V domains shown)
VH: QVQLQESGPGLVKPSETLSLTCTVSGGSISTYYWSWIRQPAGKGLEWIGLIYTSGSTNYNPSLKSRVTMSLDTSKNQFSLRLTSVTAADTAVYYCARDRGYYYGVDVWGQGTTVTVSS
VL: DIQLTPSPSSVSASVGDRVTITCRASQGIAGWLAWYQQKPGKAPKLLIYAASSLQSGVPSRFSGSGSGTDFTLTISSLQPEDFATYYCQQADSFPPTFGGGTKVEIK
Consider B9, for which the “IC50 (pM), STAT-luciferase assay” value in assay [1] is 650 pM; with Native human IL-23 [2], 208 pM; with recombinant human IL-23 [3] it was 338 pM. For the same molecule, the “IC50 (pM), NK cell assay (IFNγ)” value in assay [4] was 52 pM; with recombinant human IL-23 [5] it was 69 pM.

B10: Antibody E (antibody, V domains shown)
VH: QVQLVESGGGVVQPGRSLRLSCAASGFTFSSYGMHWVRQAPGKGLEWVAVIWYDGSNEYYADSVKGRFTISRDNSKNTLYLQMNSLRAEDTAVYYCARDRGYTSSWYPDAFDIWGQGTMVTVSS
VL: QSVLTQPPSVSGAPGQRVTISCTGSSSNTGAGYDVHWYQQVPGTAPKLLIYGSGNRPSGVPDRFSGSKSGTSASLAITGLQAEDEADYYCQSYDSSLSGWVFGGGTRLTVL
On to B10, for which the “IC50 (pM), STAT-luciferase assay” value came to 188 pM in assay [1] and 140 pM with Native human IL-23 [2]. For the same molecule, in [11], the “IC50 (pM), IL-22 human whole blood assay” value worked out at 56 pM. For the same molecule, the figures for the “IC50 (pM), NK cell assay (IFNγ)” value (in [4]; with Native human IL-23 [12]) were 21 pM and 158 pM, respectively. The “IC50 (pM), IFNγ human whole blood assay” value in assay [9] was found to be 54 pM.
